We go through two substances from patent US5747453.

The target of this test is PTH receptor (rat) (UniProt P25961).
Chain of PTH receptor (rat) (P25961 27-591): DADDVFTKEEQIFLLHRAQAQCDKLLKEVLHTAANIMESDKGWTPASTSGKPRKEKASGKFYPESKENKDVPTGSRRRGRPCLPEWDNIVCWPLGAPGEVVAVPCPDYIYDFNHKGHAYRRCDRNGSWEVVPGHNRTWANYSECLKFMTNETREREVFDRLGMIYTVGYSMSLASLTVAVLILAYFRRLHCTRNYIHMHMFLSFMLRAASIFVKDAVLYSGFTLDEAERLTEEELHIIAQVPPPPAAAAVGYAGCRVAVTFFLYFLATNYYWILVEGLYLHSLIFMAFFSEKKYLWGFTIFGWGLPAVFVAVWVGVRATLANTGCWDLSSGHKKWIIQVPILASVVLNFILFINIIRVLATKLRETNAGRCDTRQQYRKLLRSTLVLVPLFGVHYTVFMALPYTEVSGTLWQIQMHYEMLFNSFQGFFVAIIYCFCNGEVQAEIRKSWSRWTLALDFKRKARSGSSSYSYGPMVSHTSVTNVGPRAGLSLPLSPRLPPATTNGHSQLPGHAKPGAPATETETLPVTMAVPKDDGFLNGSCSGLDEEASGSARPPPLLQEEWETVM

Chain of PTH analog 1 (1-35) (ligand) (peptide): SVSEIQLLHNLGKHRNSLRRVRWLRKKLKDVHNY

On to PTH analog 1 (1-35) (ligand), for which the cAMP concentration (adenylate cyclase stimulation) in UMR106 cells, scintillation proximity assay stood at 0.9 nM. The value for “Synthetic PTH having the wild-type sequence (ligand)” was 4.4 nM.
